Data from paper PMC6330057 (Nature cell biology, 2018).

Target: the molecule itself
Assay: negative-stain electron microscopy of fibrils

Protein	binding result
CrSSNA1(1-105) (domain or fragment, Chlamydomonas reinhardtii, UniProt Q9XF62 1-105, looked up) MSAQGQALQNHNNELVKCIEDLREKREEIIKQLREDDAEKAKITQELQILTKRLAQVNESIARKTETKNEYDKVISETEAAYLKILESSQTLLTVLKREAVNIAK	binds
CrSSNA1(20-111) (domain or fragment, Chlamydomonas reinhardtii, UniProt Q9XF62 20-111, looked up) EDLREKREEIIKQLREDDAEKAKITQELQILTKRLAQVNESIARKTETKNEYDKVISETEAAYLKILESSQTLLTVLKREAVNIAKKKQASS	binds
